These results are taken from patent CN114573704A (dated 2022).

Broadly, the Kd is the equilibrium constant for the complex coming apart. A higher Kd goes with weaker binding. By koff is commonly meant a measure of how fast the partners let go of each other. As a reminder, the kon is the rate constant with which the complex forms. A high value points to fast association. The term IC50 denotes the point on the concentration scale where inhibition reaches its midpoint. Low readings indicate higher potency, high ones lower potency.

The target in assay [1] is T1, 筛选及检测用人PD-1抗原 (human PD-1 extracellular domain with His tag, Sino Biological Cat.10377-H08H) (human, UniProt Q15116 25-167).
T1 construct: Bought product; the entry holds the extracellular domain and the His tag; also called PD-1蛋白
Description: SPR Biacore T200, antibody captured on protein A CM5 chip, PD-1-His as analyte. (In general: In SPR one partner is held on a chip, and binding of the other changes the refractive index at the surface.)

Assay [2] deals with T2, 筛选及检测用人PD-1-Fc抗原 (human PD-1-Fc, 百英生物 B3789) (human).
T2 construct: also called 带Fc标签的PD-1融合蛋白
Description: competition ELISA, PD-1-Fc coated, biotinylated PD-L1 as competitor, antibody titrated.

B1: WO2017054646中的IgG4型PD-1Ab646 (antibody, V domains shown)
VH: EVQLVESGGGLVQPGGSLRLSCAASGFTFSSYMMSWVRQAPGKGLEWVATISGGGANTYYPDSVKGRFTISRDNAKNSLYLQMNSLRAEDTAVYYCARQLYYFDYWGQGTTVTVSS
VL: DIQMTQSPSSLSASVGDRVTITCLASQTIGTWLTWYQQKPGKAPKLLIYTATSLADGVPSRFSGSGSGTDFTLTISSLQPEDFATYYCQQVYSIPWTFGGGTKVEIKR
notes: IgG4 positive control
For the molecule B1, in assay [1], the Kd came out at 7.75 nM, the koff was 0.000479 s⁻¹ and the association rate constant (kon) stood at 61800 M⁻¹ s⁻¹. In addition, the IC50 in assay [2] was 2.79 nM.
